Data published in patent US20220064648, “NOVEL X-[…] FOR THE USE IN DETECTION OF SNAP25” (Galderma Holding S.A., published 2022).

T1: SNAP25 Peptide 1 (PEP1) (Homo sapiens, UniProt P60880 SEQ:1-35)
T1 chain: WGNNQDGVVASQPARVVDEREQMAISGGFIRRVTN

T2: SNAP25 Peptide 3 (PEP3; only a fragment of it is a SNAP25 subsequence) (Homo sapiens, UniProt P60880 SEQ:1-33)
T2 chain: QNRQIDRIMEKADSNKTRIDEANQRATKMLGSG


Legend:
SNAP25 Peptide 1 (PEP1) = molecular target: T1, SNAP25 Peptide 1 (PEP1); test: ELONA
Excerpt: (§1) The data in Table 2 was collected by running direct ELISA assays on the 96 X-aptamers, elucidating their ability to bind SNAP25, SNAP25 fragments (PEP1, PEP2, PEP3, and PEP4), and a negative control. The X-aptamers were biotinylated and immobilized onto streptavidin-coated plates and were utilized as detection molecules. Higher numbers represent strong binding. The negative control peptide is a random peptide to measure the amount of binding that occurs to a random amino acid sequence.

[1] = molecular target: T2, SNAP25 Peptide 3 (PEP3; only a fragment …); test: ELONA
Excerpt: as §1

Binder	binding signal (SNAP25 Peptide 1 (PEP1)) [ELISA signal]	binding signal [1] [ELISA signal]
PEP 1.09 (ssDNA, W indole, X amine, Y phenol modified dU [14,27 (X amine dU); 15,19,34 (Y phenol dU); 17,23 (W indole dU)]) DNA: TTTTTAACACGACTTATCTGTGTCAGTCGAACGTCGCGGAGGTGGGCCCATG	337	
PEP 3.05 (ssDNA, W indole, X amine, Y phenol modified dU [19Y,23W,24W,38W]) DNA: TTTTTAACACGACGACACTGTGTTGGGCGAACTCCGCTGGGGTGGGCCCATG		272
PEP 3.21 (ssDNA, W indole, X amine, Y phenol modified dU [14, 27, 43 (amine dU), 19, 23, 38, 40 (indole dU), 20, 46 (phenol dU)]) DNA: TTTTTAAGCCCACTCCGGTTCGTCCATCACAGCCCACTGTGGTCGTGCCATG		96
PEP 3.03 (ssDNA, W indole, X amine, Y phenol modified dU [16W,19W,20Y,34Y,38W,40W,43X,46Y]) DNA: TTTTTAACACGACAATGGTTCGGGGGGCGAACGTCACTGTGGTCGTGCCATG		338
PEP 3.08 (ssDNA, W indole, X amine, Y phenol modified dU [15Y,19Y,24W,25X,27X,40W,43X,46Y]) DNA: TTTTTAACACGACGTCACTGTGGTTCTCGAACGCCGCGCTTGTCGTGCCATG		207
PEP 3.14 (ssDNA, W indole, X amine, Y phenol modified dU [19, 34 (phenol dU), 38 (indole dU)]) DNA: TTTTTAACACGACACCACTGTGCCCACCACAGTTCACTGAAGTGGGCCCATG		114
PEP 3.17 (ssDNA, W indole, X amine, Y phenol modified dU [14, 27 (amine dU), 19 (indole dU), 20 (phenol dU)]) DNA: TTTTTAAGCCCACTAGAGTTCGGCCATCACAGTCCAACACTGTGGGCCCATG		110
PEP 3.04 (ssDNA, W indole, X amine, Y phenol modified dU [19Y,24W,34Y,40W]) DNA: TTTTTAAGCCCACGGCACTGTGCTCAGCACAGCTCGGGGTGGTGGGCCCATG		276
PEP 3.10 (ssDNA, W indole, X amine, Y phenol modified dU [19Y,34Y]) DNA: TTTTTAACACGACAGCACTGTGCACAGCACAGCTCAAGGGTGTGGGCCCATG		139
PEP 1.16 (ssDNA, W indole, X amine, Y phenol modified dU [19 (Y phenol dU); 36,40 (W indole dU)]) DNA: TTTTTAACACGACGGGCCTGTGAACACCGAACTGATGGGTCGTGGGCCCATG	212	
PEP 1.05 (ssDNA, W indole, X amine, Y phenol modified dU [19,40,43,46]) DNA: TTTTTAAGCCCACCAAGCTGTGGCGGGCACAGGGCAGCATCGTCGTGCCATG	641	
PEP 3.19 (ssDNA, W indole, X amine, Y phenol modified dU [19, 46 (phenol dU), 27, 43 (amine dU)]) DNA: TTTTTAAGCCCACGCCACTGTGACCATCGAACCACACGGCCGTCGTGCCATG		102
PEP 1.03 (ssDNA, W indole, X amine, Y phenol modified dU [19,20,36]) DNA: TTTTTAACACGACGGGGGTTCGGGCAGCGAACAGATGGGCGGTGGGCCCATG	677	
PEP 3.11 (ssDNA, W indole, X amine, Y phenol modified dU [14X,16W,19W,20Y,40W,43X,46Y]) DNA: TTTTTAAGCCCACTGTCGTTCGGCGGGCGAACGACAGCATGGTCGTGCCATG		137
PEP 3.16 (ssDNA, W indole, X amine, Y phenol modified dU [15, 19, 34 (phenol dU)]) DNA: TTTTTAAGCCCACATCACTGTGCGAGCCACAGATCAGGCAGGTGGGCCCATG		111
PEP 1.15 (ssDNA, W indole, X amine, Y phenol modified dU [15,19,34 (Y phenol dU); 17,36 (W indole dU)]) DNA: TTTTTAAGCCCACCTCTCTGTGGGAGACACAGTTATTGCAGGTGGGCCCATG	220	
PEP 3.02 (ssDNA, W indole, X amine, Y phenol modified dU [19Y,24W,25X,34Y,40W,43X,46Y]) DNA: TTTTTAACACGACAGCACTGTGGTTCGCGAACCTCAAGCTCGTCGTGCCATG		406
PEP 3.15 (ssDNA, W indole, X amine, Y phenol modified dU [14, 25, 27, 43 (amine dU), 19, 46 (phenol dU), 36 (indole dU)]) DNA: TTTTTAACACGACTGCACTGTGAATCTCGAACGCATCGGGAGTCGTGCCATG		114
PEP 1.12 (ssDNA, W indole, X amine, Y phenol modified dU [19,24 (W indole dU); 20,34,46 (Y phenol dU); 43 (X amine dU)]) DNA: TTTTTAAGCCCACAAAAGTTCGATCAGCACAGGTCGCCAAAGTCGTGCCATG	289	

Binder	binding signal (SNAP25 Peptide 1 (PEP1)) [ELISA signal]	binding signal [1] [ELISA signal]
PEP 3.18 (ssDNA, W indole, X amine, Y phenol modified dU [19, 36 (indole dU), 20, 46 (phenol dU), 27, 43 (amine dU)]) DNA: TTTTTAACACGACACGGGTTCGCACATCACAGAGATACACTGTCGTGCCATG		105
PEP 3.07 (ssDNA, W indole, X amine, Y phenol modified dU [19Y]) DNA: TTTTTAAGCCCACGACACTGTGGCCAACACAGTACATGCATGTGGGCCCATG		219
PEP 1.11 (ssDNA, W indole, X amine, Y phenol modified dU [19,36,38 (W indole dU); 20,34,46 (Y phenol dU); 27,43 (X amine dU)]) DNA: TTTTTAACACGACGCCAGTTCGAAGGTCACAGTTATTTGGCGTCGTGCCATG	293	
PEP 3.24 (ssDNA, W indole, X amine, Y phenol modified dU [19,20,43,46]) DNA: TTTTTAAGCCCACCAGGGTTCGGGAGCCGAACGCCAGCACTGTCGTGCCATG		81
PEP 3.23 (ssDNA, W indole, X amine, Y phenol modified dU [15, 19, 34 (phenol dU), 27 (amine dU)]) DNA: TTTTTAAGCCCACCTCACTGTGCAAGTCACAGGTCGGCACCGTGGGCCCATG		95
PEP 3.20 (ssDNA, W indole, X amine, Y phenol modified dU [16, 17, 23, 24 (indole dU), 19 (phenol dU), 27 (amine dU)]) DNA: TTTTTAAGCCCACAGTTCTGTGTTCATCACAGAGCAACACTGTGGGCCCATG		97
PEP 3.06 (ssDNA, W indole, X amine, Y phenol modified dU [19Y,24W,35Y,43X,46Y]) DNA: TTTTTAACACGACCGCACTGTGATAGGCGAACGGTGTGGAGGTCGTGCCATG		230
PEP 1.17 (ssDNA, W indole, X amine, Y phenol modified dU [19,38 (W indole dU); 20,34,35,46 (Y phenol dU); 25,43 (X amine dU)]) DNA: TTTTTAACACGACGGCGGTTCGCCTCCCGAACGTTGTTGGAGTCGTGCCATG	200	
PEP 3.12 (ssDNA, W indole, X amine, Y phenol modified dU [14 (amine dU), 16 (indole dU), 19 (phenol dU)]) DNA: TTTTTAACACGACTATCCTGTGAGCAACACAGGGCGGCACTGTGGGCCCATG		118
PEP 1.04 (ssDNA, W indole, X amine, Y phenol modified dU [16,19,34,38,43,46]) DNA: TTTTTAACACGACGCTCCTGTGACAGCCGAACATCATTGGTGTCGTGCCATG	645	
PEP 3.01 (ssDNA, W indole, X amine, Y phenol modified dU [19Y,24W,25X,27X,34Y,36W,38W,40W]) DNA: TTTTTAACACGACACCACTGTGGTTCTCACAGCTATGTGTTGTGGGCCCATG		503
PEP 1.10 (ssDNA, W indole, X amine, Y phenol modified dU [19,24,38 (W indole dU); 20 (Y phenol dU); 27 (X amine dU)]) DNA: TTTTTAACACGACGGGCGTTCGCTGGTCGAACACCAATGCTGTGGGCCCATG	293	
PEP 1.07 (ssDNA, W indole, X amine, Y phenol modified dU [14,25 (X amine dU); 19,35 (Y phenol dU); 24,40 (W indole dU)]) DNA: TTTTTAACACGACTCAACTGTGATTCCCACAGACTGGGCTCGTGGGCCCATG	429	
PEP 1.08 (ssDNA, W indole, X amine, Y phenol modified dU [19 (W indole dU); 20,46 (Y phenol dU); 25,43 (X amine dU)]) DNA: TTTTTAACACGACCCCGGTTCGACTCCCACAGAGCGGGGGTGTCGTGCCATG	357	
PEP 3.22 (ssDNA, W indole, X amine, Y phenol modified dU [15, 19, 46 (phenol dU), 43 (amine dU)]) DNA: TTTTTAACACGACATCACTGTGGAAGACACAGGACGTGCGTGTCGTGCCATG		96
PEP 3.13 (ssDNA, W indole, X amine, Y phenol modified dU [15, 19, 46 (phenol dU), 38 (indole dU), 43 (amine dU)]) DNA: TTTTTAACACGACATCACTGTGCACAGCGAACTGCGTTGGCGTCGTGCCATG		115
PEP 1.14 (ssDNA, W indole, X amine, Y phenol modified dU [15,19,34 (Y phenol dU); 24,40 (W indole dU)]) DNA: TTTTTAAGCCCACCTGACTGTGGTGGGCACAGTTCGCCATCGTGGGCCCATG	241	
PEP 1.06 (ssDNA, W indole, X amine, Y phenol modified dU [15,20 (Y phenol dU); 19,24,38 (W indole dU); 27 (X amine dU)]) DNA: TTTTTAAGCCCACCTCAGTTCGCTCATCGAACGACGATGCTGTGGGCCCATG	477	
